Test results from US20210277141A1 (ORIMABS, published 2021).

Legend:
[1] = biological target: T1, Prostate specific membrane antigen (PSMA) expressed on cell surface (human, UniProt Q04609 1-750); assay: cell-based or functional assay
[2] = biological target: T1, Prostate specific membrane antigen …; assay: cell ELISA on fixed C4-2 cells, 100 nM to 0.19 pM, HRP anti-human IgG Fc
[3] = biological target: T1, Prostate specific membrane antigen …; assay: cell ELISA on fixed C4-2 cells; 3-fold dilutions from 100 nM to 0.19 pM; detection with HRP anti-human IgG Fc, TMB
[4] = biological target: T2, PSMA (form not stated; as named in the summary sentence of paragraph 43) (UniProt Q04609 44-750, limits assumed); assay: not stated (summary sentence in the description)
T2 construct: The summary sentence gives neither the assay nor the form of PSMA, so the value could not be assigned to m8, m9 or m10; also called prostate specific membrane antigen
T2 sequence (Q04609 44-750 limits assumed): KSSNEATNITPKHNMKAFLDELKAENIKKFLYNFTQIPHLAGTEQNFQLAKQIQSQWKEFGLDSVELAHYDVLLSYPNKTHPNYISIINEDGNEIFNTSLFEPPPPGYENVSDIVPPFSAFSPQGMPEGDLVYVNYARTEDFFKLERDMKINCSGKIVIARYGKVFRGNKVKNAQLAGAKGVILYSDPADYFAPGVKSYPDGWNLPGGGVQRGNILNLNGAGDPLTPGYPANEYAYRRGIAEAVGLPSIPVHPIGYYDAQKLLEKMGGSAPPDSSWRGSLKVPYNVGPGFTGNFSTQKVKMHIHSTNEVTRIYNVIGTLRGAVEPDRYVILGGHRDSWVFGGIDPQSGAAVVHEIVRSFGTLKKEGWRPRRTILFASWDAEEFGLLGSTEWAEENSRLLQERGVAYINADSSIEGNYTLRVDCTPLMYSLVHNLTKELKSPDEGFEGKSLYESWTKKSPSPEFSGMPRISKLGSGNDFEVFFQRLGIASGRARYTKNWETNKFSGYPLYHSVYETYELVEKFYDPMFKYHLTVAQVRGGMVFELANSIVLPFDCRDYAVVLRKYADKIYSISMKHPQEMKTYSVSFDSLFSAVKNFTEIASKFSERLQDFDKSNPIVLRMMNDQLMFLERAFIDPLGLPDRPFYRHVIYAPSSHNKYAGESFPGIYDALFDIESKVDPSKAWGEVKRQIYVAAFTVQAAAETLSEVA

[5] = biological target: T3, biotinylated recombinant extracellular domain of human PSMA (human, UniProt Q04609 44-750, biotinylated with EZ-Link Sulfo-NHS-Biotin (protein:biotin 1:20); residues not stated); assay: capture ELISA: scFv (100 nM to 0.137 nM) captured on anti-Flag, 0.5 µg/ml biotinylated PSMA, streptavidin-HRP; GraphPad Prism
T3 construct: Bought from R&D systems; also called biotinylated PSMA; biotinylated PSMA protein
T3 sequence (Q04609 44-750): as the sequence (Q04609 44-750 limits assumed) above
Procedure: (§1) Briefly, anti-Flag antibody (Sigma) was coated on ELISA plate at 4° C. overnight in PBS. […] Plate was then washed and incubated with biotinylated PSMA and the binding was detected with streptavidin-HRP, and analyzed by colorimetric development using TMB and then stop buffer. Absorbance at OD450 was measured and the affinity was calculated using GraphPad Prism software.
(§2) There is a Flag tag and a V5 tag at the N and C terminus of scFv, and thus antibodies to these tags were used to capture the scFv for ELISA assay. Briefly, anti-Flag antibody (Sigma) was coated on ELISA plate at 1 μg/ml, 50 μl/well at 4° C. overnight in PBS. […] Plate was washed 6 times with PBST and then incubated with 0.5 μg/ml biotinylated PSMA in PBS™ for 1 more hour at RT. After 6 washes, plate was incubated with 1:1000 diluted streptavidin-HRP (BD Bioscience) in PBS™ at RT for 30 min. Plate was washed again for 6 times and incubated with TMB for 20 min at RT, colorimertric reaction was stopped with stop buffer and the absorbance was read at OD450.

[6] = biological target: T3, biotinylated recombinant extracellular …; assay: capture ELISA: anti-Flag coated, gy1 scFv in 3-fold dilutions, 0.5 ug/ml biotinylated PSMA, streptavidin-HRP, TMB
Procedure: as §1, §2

[7] = biological target: T1, Prostate specific membrane antigen …; assay: cell ELISA on fixed C4-2 cells, 8100 nM to 0.005 nM, HRP anti-6His; one-site binding hyperbola
Procedure: (§3) Briefly, C4-2 cultured in 96-well plate were fixed with 4% paraformaldehyde, blocked with 3% H₂O₂ and 6% bovine serum albumin sequentially. […] Cell binding was detected with HRP-conjugated mouse anti-6His and colorimetric signals were developed by TMB and stopped by STOP buffer.
(§4) The next day, cells were fixed with 4% paraformaldehyde for 20 min before being treated with 3% H₂O₂ for 20 minutes to block endogenous peroxidase followed by blocking with 6% bovine serum albumin for 30 min at room temperature. […] Cells were then washed with PBST and incubated with HRP-conjugated mouse anti-6His antibody (AbD Serotec, Bio-Rad, Oxford, UK) for 1h at room temperature. Colorimetric signals were developed by addition of 3, 3′, 5, 5′-tetramethylbenzidine (TMB, eBioscience, CA, USA) and stopped by incubation with 1 M […] for 15 minutes. The absorbance was measured at 450 nm using a Sunrise microplate reader (Tecan, Groedig, Austria) and the binding curves were analyzed using GraphPad Prism 5.0 software.

[8] = biological target: T1, Prostate specific membrane antigen …; assay: cell ELISA on fixed C4-2 cells; 3-fold dilutions, 1 h, 37 °C; detection with HRP mouse anti-6His, TMB
Procedure: as §3, §4

T1 sequence (Q04609 whole entry): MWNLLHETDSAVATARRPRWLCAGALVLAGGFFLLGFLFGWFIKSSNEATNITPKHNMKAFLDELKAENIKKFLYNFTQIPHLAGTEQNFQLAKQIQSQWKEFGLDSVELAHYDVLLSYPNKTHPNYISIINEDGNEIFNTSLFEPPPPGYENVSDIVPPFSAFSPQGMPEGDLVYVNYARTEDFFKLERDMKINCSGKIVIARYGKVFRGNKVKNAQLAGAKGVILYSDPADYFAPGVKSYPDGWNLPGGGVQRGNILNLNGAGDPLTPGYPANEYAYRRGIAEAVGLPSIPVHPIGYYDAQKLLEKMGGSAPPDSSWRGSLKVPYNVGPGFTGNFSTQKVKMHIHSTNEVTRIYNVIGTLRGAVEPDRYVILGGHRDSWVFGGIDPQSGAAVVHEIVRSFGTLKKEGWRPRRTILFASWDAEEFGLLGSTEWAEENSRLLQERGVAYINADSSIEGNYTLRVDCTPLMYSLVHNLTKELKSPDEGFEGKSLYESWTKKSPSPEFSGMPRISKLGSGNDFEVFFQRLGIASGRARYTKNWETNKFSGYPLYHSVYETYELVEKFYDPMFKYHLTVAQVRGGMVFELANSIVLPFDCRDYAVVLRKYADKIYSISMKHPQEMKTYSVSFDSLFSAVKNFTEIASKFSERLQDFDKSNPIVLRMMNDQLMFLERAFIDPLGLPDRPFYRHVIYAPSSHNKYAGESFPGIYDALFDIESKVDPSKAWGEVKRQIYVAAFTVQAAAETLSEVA

B1: PSMAb-DM1 (antibody, human IgG1, lambda, V domains shown)
VH: EVQLVESGGALAKPGGSLRLSCAASGFTLSGYAMHWVRQAPGKGLEWVAVISYDGSNKYYADSVKGRFTVSRDNSKNTLFLQMNSLRPEDTAVYYCAKGLTWGLGDNDALDIWGPGTTVTVSS
VL: QSVLTQPPSVSGAPGQSVIISCTGSSSNIGAGSHVHWYQQVPGTAPKLLIYENTNRPSGVPDRFSGSKSGTSGSLAITGLQPEDEADYYCATWDDSLNGVIFGGGTKATVLG
modifications: DM1 through SMCC linker, drug/Ab conjugation ratio 3.3 per antibody; conjugated residues and chain not stated
notes: also called PSMAb-ADC; PSMAb conjugate with DM1
IC50 of cytotoxicity on C4-2 cells (alamarBlue, 4 days) [1]: 120 pM

B2: PSMAb-MMAF (antibody, human IgG1, lambda, V domains shown)
VH: EVQLVESGGALAKPGGSLRLSCAASGFTLSGYAMHWVRQAPGKGLEWVAVISYDGSNKYYADSVKGRFTVSRDNSKNTLFLQMNSLRPEDTAVYYCAKGLTWGLGDNDALDIWGPGTTVTVSS
VL: QSVLTQPPSVSGAPGQSVIISCTGSSSNIGAGSHVHWYQQVPGTAPKLLIYENTNRPSGVPDRFSGSKSGTSGSLAITGLQPEDEADYYCATWDDSLNGVIFGGGTKATVLG
modifications: MC-vc-PAB-MMAF after partial reduction with TCEP, drug loading 3.03 per antibody; conjugated residues and chain not stated
notes: also called PSMAb-ADC; PSMAb conjugate with MMAF
IC50 of cytotoxicity on C4-2 cells (alamarBlue, 4 days) [1]: 920 pM

B3: PSMAb-MMAE (antibody, human IgG1, lambda, V domains shown)
VH: EVQLVESGGALAKPGGSLRLSCAASGFTLSGYAMHWVRQAPGKGLEWVAVISYDGSNKYYADSVKGRFTVSRDNSKNTLFLQMNSLRPEDTAVYYCAKGLTWGLGDNDALDIWGPGTTVTVSS
VL: QSVLTQPPSVSGAPGQSVIISCTGSSSNIGAGSHVHWYQQVPGTAPKLLIYENTNRPSGVPDRFSGSKSGTSGSLAITGLQPEDEADYYCATWDDSLNGVIFGGGTKATVLG
modifications: MC-vc-PAB-MMAE after partial reduction with TCEP, drug loading 3.5 per antibody; conjugated residues and chain not stated
notes: also called PSMAb-ADC; PSMAb conjugate with MMAE
IC50 of cytotoxicity on C4-2 cells (alamarBlue, 4 days) [1]: 590 pM

B4: PSMAb (full IgG1 antibody engineered from gy1-2 scFv) (antibody, V domains shown)
VH: EVQLVESGGALAKPGGSLRLSCAASGFTLSGYAMHWVRQAPGKGLEWVAVISYDGSNKYYADSVKGRFTVSRDNSKNTLFLQMNSLRPEDTAVYYCAKGLTWGLGDNDALDIWGPGTTVTVSS
VL: QSVLTQPPSVSGAPGQSVIISCTGSSSNIGAGSHVHWYQQVPGTAPKLLIYENTNRPSGVPDRFSGSKSGTSGSLAITGLQPEDEADYYCATWDDSLNGVIFGGGTKATVLG
notes: IgG1 heavy constant region and lambda light constant region; expressed in CHO-S cells; also called PSMAb full antibody
Kd [2]: 100 pM
EC50 (read off the curve) [3]: ~100 pM

B5: gy1 scFv (secreted by yeast strain YVH10) (scFv)
scFv: QSVLTQPPSVSGAPGQSVIISCTGSSSNIGAGSHVHWYQQVPGTAPKLLIYGNTNRPSGVPDRFSGSKSGTSGSLAITGLQPEDEADYYCATWDDSLNGVIFGGGTKVTVLGGSSRSSSSGGGGSGGGGEVQLVESGGALAKPGGSLRLSCAASGSTLSGYAMHWVRQAPGKGLEWVAVISYDGSNKYYADSVKGRFTISRDNSKNTLFLQMNSLRPEDTAVYYCAKGLTWGLGDNDALDIWGPGTTVTVSS
notes: also called scFv gy1; anti-PSMA scFv gy1; not shown: Flag tag at the N terminus; V5 tag at the C terminus; 6xHis tag at the C terminus
Kd [4]: 900 pM
Kd [5]: 1160 pM
EC50 (read off the curve) [6]: ~1000 pM

B6: E. coli expressed gy1 scFv (pET302-gy1, BL21) (scFv)
scFv: QSVLTQPPSVSGAPGQSVIISCTGSSSNIGAGSHVHWYQQVPGTAPKLLIYGNTNRPSGVPDRFSGSKSGTSGSLAITGLQPEDEADYYCATWDDSLNGVIFGGGTKVTVLGGSSRSSSSGGGGSGGGGEVQLVESGGALAKPGGSLRLSCAASGSTLSGYAMHWVRQAPGKGLEWVAVISYDGSNKYYADSVKGRFTISRDNSKNTLFLQMNSLRPEDTAVYYCAKGLTWGLGDNDALDIWGPGTTVTVSS
notes: also called E. coli expressed scFv gy1; not shown: His tag (purified on HisTrp HP column, detected with anti-6His)
Kd [7]: 4130 pM
EC50 (read off the curve) [8]: ~300000 pM
